Here are results for 116 sequences from the supplement of paper PMC10724198.

± gives the standard deviation of the averaged measurements.
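Note: PSI is a weighted mean of sequencing reads over stability bins, variants kept only with over 10 reads, mCherry proximal and sfGFP distal, peptide attached via GGGS linker.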

The test system of the series is Saccharomyces cerevisiae. As to the kind of experiment: protein stability index of tFT-peptide fusion (C-terminal peptide) (PSI (0-1 scale)); higher = more stable (slower turnover). Particulars: genetic background: wild type; temperature: 30 C.
Consider LPFPSPLPSPPP, for which the protein stability index stood at 0.702 ± 0.035. With LPGSVLLFPSFS the figure was 0.747 ± 0.035; with LPHLFPSTPPAS, 0.723 ± 0.025; with LPHSYFCPTFFF, 0.675 ± 0.019. With LPIKRLPLPTVP the figure was 0.682 ± 0.015. Under LPIKRLWKGLHG stands 0.652 ± 0.1. Sequence LPLGSTVVSGES came in with a protein stability index of 0.632 ± 0.034. Under LPLHHYAHKFDL stands 0.746 ± 0.1. Under LPLIISTNYTPD stands 0.723 ± 0.11. Under LPLPLPWHSCPP stands 0.721 ± 0.029; under LPLPVPPPPLPS, 0.654 ± 0.034; under LPLRYFSFPDPF, 0.6949 ± 0.0035. LPPAPAPPQCST registered a protein stability index of 0.675 ± 0.052. Under LPPCAPPLPPSS stands 0.706 ± 0.067; under LPPFFPLLSPPF, 0.664 ± 0.031; under LPPFPRPPPPSP, 0.719 ± 0.029. Under LPPGIPLRSSPP stands 0.683 ± 0.022; under LPPLLPPFHPPR, 0.701 ± 0.06; under LPPLPPRSPPPP, 0.731 ± 0.02. LPPLRVIANIRG yielded a protein stability index of 0.659 ± 0.019. The sequence LPPPAPPSSFPP returned a protein stability index of 0.661 ± 0.056. With LPPPIPPPLSLA the figure was 0.703 ± 0.013.

LPPPLPPSLRLR came in with a protein stability index of 0.602 ± 0.083.

With LPPPPLTTLLHT, the protein stability index is 0.604 ± 0.043. Under LPPPPRPLPRSL stands 0.732 ± 0.018; under LPPPRPTRSPTH, 0.617 ± 0.034.

As to LPPRIPRPDVSF, the protein stability index worked out at 0.72 ± 0.0075. LPPRPPESLHLP had a protein stability index of 0.724 ± 0.03. With LPPRPPRRPESP the figure was 0.663 ± 0.055.

For the sequence LPPSLPTHLSHP, the protein stability index turned out to be 0.7629 ± 0.0041. Sequence LPPSPPPFPPLP yielded a protein stability index of 0.642 ± 0.011. Under LPPTHPPPPPAL stands 0.7 ± 0.045; under LPPVLPLLPSPP, 0.692 ± 0.044; under LPQVKLGRIYTY, 0.683 ± 0.032. With LPQVYSGIMRFV the figure was 0.6243 ± 0.0036; with LPRFAPPNPALP, 0.658 ± 0.071; with LPRGLRAISCVE, 0.569 ± 0.024. Regarding LPRPPPPPPPPP, the protein stability index worked out at 0.759 ± 0.042. LPRSLSGCGAGV came in with a protein stability index of 0.711 ± 0.015. With LPRSSGSTTPYP the figure was 0.688 ± 0.025; with LPSKSTVALGPL, 0.633 ± 0.046; with LPSPSATPPRPP, 0.634 ± 0.034. As for LPSPSPPPPLLL, the protein stability index is 0.677 ± 0.015. With LPSPSPPPPLLP the figure was 0.743 ± 0.022; with LPSPSSLPAPPV, 0.677 ± 0.031; with LPSRSLPSPGPP, 0.714 ± 0.027. In turn, LPSSSPHPADPS had a protein stability index of 0.643 ± 0.08. In the case of LPVCVRLSLCDV, the protein stability index turned out to be 0.6144 ± 0.004. Under LPVLCSRVFVSS stands 0.517 ± 0.023.

In the case of LPVLGSFRLIWL, the protein stability index is 0.626 ± 0.016. With LPVPPPHPPCPL the figure was 0.6497 ± 0.0036. In turn, LQPRLLSIVPYN had a protein stability index of 0.635 ± 0.03. LQSSSCLLYPSS had a protein stability index of 0.681 ± 0.026. With LRAHHHSAKFQY, the protein stability index came out at 0.6608 ± 0.0056. With LRARMACPLIIS, the protein stability index turned out to be 0.663 ± 0.025. For the sequence LRASVFPVLDMC, the protein stability index worked out at 0.718 ± 0.075.

The sequence LRCSVKQNLGIV registered a protein stability index of 0.655 ± 0.045. LRDTAPEPGPAP returned a protein stability index of 0.6895 ± 0.0014. With LREETKREDDKQ the figure was 0.814 ± 0.061; with LRENKGPAPPLL, 0.651 ± 0.0087.

In turn, LRFDGKASHSST returned a protein stability index of 0.6813 ± 0.0014. Under LRFRGKSQNDYD stands 0.67 ± 0.058; under LRFTYSFIPPSV, 0.631 ± 0.00064. In turn, LRGGWVESCGGW came in with a protein stability index of 0.669 ± 0.027. With LRHRAYPKLFPA the figure was 0.708 ± 0.011; with LRIILPPLAQPE, 0.639 ± 0.019. On to LRKNRKHINKKI, for which the protein stability index turned out to be 0.626 ± 0.034. In turn, LRLATTLFPLSF returned a protein stability index of 0.797 ± 0.12. Consider LRLECESIKRYT, for which the protein stability index amounted to 0.61 ± 0.055. With LRLPAPPLASAC the figure was 0.596 ± 0.006; with LRMHFPPHPSSL, 0.691 ± 0.067. With LRNGSFFLVFSC, the protein stability index worked out at 0.531 ± 0.016. LRPPLRPRPIPL showed a protein stability index of 0.6983 ± 0.0036. Under LRPPPPRGPSPP stands 0.689 ± 0.023; under LRPRPPTLPPSR, 0.638 ± 0.04. LRRAPPSPPPPP: the protein stability index amounted to 0.716 ± 0.054. Under LRRGRLVSSAAF stands 0.802 ± 0.077. With LRRTKWRTLQAP the figure was 0.701 ± 0.048; with LRSGGVPVFWGS, 0.721 ± 0.043. In the case of LRSPHPLPPPPP, the protein stability index is 0.732 ± 0.062. Sequence LRSPPPVSHRLP returned a protein stability index of 0.822 ± 0.048. Under LRSRVGYVMPVR stands 0.5988 ± 0.0057. Under LRVKVPLLGLWA stands 0.557 ± 0.025.

Turning to LRYENSQRKELR, the protein stability index came to 0.653 ± 0.055. On to LSAEAGAGLRAM, for which the protein stability index amounted to 0.684 ± 0.034. The sequence LSALPPRPFSYR had a protein stability index of 0.7053 ± 0.004. With LSAPPPPPPPSP the figure was 0.7026 ± 0.003; with LSATWLKAIVYW, 0.578 ± 0.012.

The sequence LSETTAYLQQAS had a protein stability index of 0.693 ± 0.1. Under LSFDAVSVGFGG stands 0.691 ± 0.064; under LSGSRAFVTVVL, 0.644 ± 0.034; under LSGSTQLLYFFQ, 0.6651 ± 0.0028.

Take LSGTGTIIKARA: the protein stability index amounted to 0.67 ± 0.14. Under LSGVYPQACSRL stands 0.734 ± 0.014. Sequence LSHMRVSLTRPR returned a protein stability index of 0.707 ± 0.029. Under LSHSHLYLFFHH stands 0.6957 ± 0.0027; under LSIPPSLLSLPL, 0.702 ± 0.025. Under LSLALGSPGALP stands 0.703 ± 0.07; under LSLCVVFRAPSR, 0.686 ± 0.042; under LSLLLLPPFPHF, 0.758 ± 0.026.

For LSLLPPPPPPSP, the protein stability index is 0.688 ± 0.011. With LSLRGRLNYRMM the figure was 0.647 ± 0.011; with LSLSPLHRSSFR, 0.6954 ± 0.0056. The sequence LSPGSSPAVSGF had a protein stability index of 0.722 ± 0.13. Turning to LSPGTPVSAPRL, the protein stability index worked out at 0.655 ± 0.029. With LSPLSHPPSPAP, the protein stability index was determined as 0.6806 ± 0.0014. In turn, LSPLSVPAPPSP returned a protein stability index of 0.655 ± 0.027. In turn, LSPPLSLPPASP showed a protein stability index of 0.731 ± 0.032.

LSPPPRPPLAPP returned a protein stability index of 0.65 ± 0.039. With LSPPPSLSSRPP the figure was 0.706 ± 0.064; with LSPPRSPPSRPP, 0.645 ± 0.029; with LSPQKRDSAVTR, 0.638 ± 0.095. LSPRSSGCPRWF: the protein stability index was 0.677 ± 0.019. With LSPTQSTLPTPP the figure was 0.673 ± 0.01. Under LSQASPGSPRPA stands 0.698 ± 0.011; under LSRLLVYSRGIV, 0.629 ± 0.093.
